Results reported in patent US20140037661A1, “Wheat Antigens and Peptides for Diagnosis of Wheat Induced Hypersensitivity” (PHADIA AB, priority 2011, published 2014).

Tests used:
Format in all cases: binding, human
[1] = system: serum-IgA from CD patients; assay: IgA reactivity ELISA to synthetic GG1 peptides; conditions: 5 μg/ml coated; n=8 CD, 2 CD on gluten free diet, 3 healthy controls; FIG. 16
Experimental: ELISA plates were coated with 100 ul of 5 μg/ml of the 19 overlapping peptides, rGG1, alpha-gliadin peptide p56-75 and deamidated alpha gliadin peptide p56-75 (Q65E) and probed with serum-IgA from CD patients, CD patients on gluten free diet and healthy controls and detected using mouse anti-human IgA1/A2 and sheep anti-mouse IgG-HRP labelled antibody. Human serum albumin (HSA) was used as control (n=8 CD patients, 2 CD patients on gluten free diet and 3 healthy controls). […] Each of the synthetic GG1 peptides no.

[2] = system: serum IgA from Dermatitis herpetiformis (DH) patients; assay: Dermatitis herpetiformis serum IgA reactivity ELISA; conditions: 5 μg/ml coated; n=12 DH patients, 2 healthy controls; FIG. 18
Experimental: ELISA plates were coated with 100 μl of 5 μg/ml rGamma gliadin 1, rGamma gliadin 2, α-gliadin peptide p56-75 (α-gli peptide), deamidated α-gliadin peptide (D) and Human serum albumin. The bound proteins were probed with sera from Dermatitis herpetiformis (DH) patients and healthy controls. IgA reactivity to the proteins was detected using mouse anti-human IgA1/A2 and sheep anti-mouse IgG-HRP labelled antibody. (n=12 DH patients and 2 healthy controls).

[3] = system: serum IgA of celiac disease patients; assay: IgA reactivity ELISA to wheat food antigens; conditions: 5 μg/ml coated, sera 1:100, read at 405 nm, FIG. 15
Experimental: 100 μl of the wheat proteins GG1 (Gamma gliadin 1), GG2 (Gamma gliadin 2), α-purothionin, GluB3-23, C-175, Mal 82 and Mal 43 of a concentration of 5 μg/ml were coated overnight at 4° C. onto Nunc Maxisorp Elisa plates. The remaining free binding sites were blocked with 1% BSA in PBST for 2 hours at room temperature. 100 μl of sera from celiac disease patients, celiac patients on diet and negative controls were added at a dilution of 1:100 in 0.5% BSA in PBST buffer and incubated for 12 hours at 4° C. The plates were washed 5 times in PBST buffer and 100 μl of mouse anti-human IgA1/A2 (BD Biosciences) diluted to 1:1000 in 0.5% BSA/PBST buffer was added and incubated at room temperature for 5 hours. The plates were then washed 5 times with PBST and 100 μl of sheep anti-mouse IgG conjugated with Horse radish peroxidise (HRP) (Amersham) antibodies were added and incubated at 37° C. for one hour.

Molecule | IgA reactivity of celiac disease patients' serum [1] | IgA reactivity, DH patients versus healthy controls [2] | IgA reactivity [3]
QVMRQQCCQQLAQIPQQLQCA (listed as Triticum aestivum) [compound 13] | specific IgA reactivity |  | 
GG2: recombinant gamma gliadin 2 with 6×Histidine at the C terminal end, expressed in E. coli (protein) MNIQVDPSSQVQWPQQQPVPQPHQPFSQQPQQTFPQPQQTFPHQPQQQFPQPQQPQQQFLQPQQPFPQQPQQPYPQQPQQPFPQTQQPQQLFPQSQQPQQQFSQPQQQFPQPQQPQQSFPQQQPPFIQPSLQQQVNPCKNFLLQQCKPVSLVSSLWSMIWPQSDCQVMRQQSCQQLAQIPQQLQCAAIHTVIHSIIMQQEQQQGMHILLPLYQQQQVGQGTLVQGQGIIQPQQPAQLEAIRSLVLQTLPTMCNVYVPPECSIIKAPFSSVVAGIGGQYRHHHHHH |  | higher IgA reactivity to sera from DH patients than to healthy controls | high
